Data: EP1438388B1

What was measured:
[1] = molecular target: putative IBC-1 receptor on G361 melanoma cells, lower affinity binding site (human); experiment: Scatchard analysis of AP-IBC-1 binding to G361 melanoma cells; lower affinity slope
[2] = molecular target: putative IBC-1 receptor on G361 melanoma cells, moderately high affinity binding site (human); experiment: Scatchard analysis of AP-IBC-1 binding to G361 melanoma cells; moderately high affinity slope
[3] = molecular target: putative IBC-1 receptor on G361 melanoma cells, lower affinity binding site (human); experiment: Scatchard analysis of AP-IBC-1 binding to G361 melanoma cells, bound AP activity; lower affinity slope
[4] = molecular target: putative IBC-1 receptor on G361 melanoma cells, moderately high affinity binding site (human); experiment: Scatchard analysis of AP-IBC-1 binding to G361 melanoma cells, bound AP activity; moderately high affinity slope

**Q.** How did the binding sites/cell (binding sites/cell) [1] turn out when “alkaline phosphatase-IBC-1 fusion protein (from UniProt P81605 20-110) (ligand)” was run?
**A.** 350000

**Q.** What about the binding sites/cell (binding sites/cell) [2] of the same substance?
**A.** 17000

**Q.** What about the Kd [3] of the same substance?
**A.** 360 nM

**Q.** And the Kd [4]?
**A.** 37.5 nM
